Assay results as given in patent US20190225705A1 (Bayer, published 2019).
Residue numbers refer to the chain shown, from its start.

Key:
[1] = biological target: T1, human coagulation factor XI (human, UniProt P03951 19-625); test: ELISA on coated human FXI
T1 construct: Bought protein; also called FXI; fXI
Experimental: (§1) A standard ELISA format was used for analyzing the binding affinity of antibodies of this invention to FXI. Human FXI was obtained from Haematologic Technologies Inc. (human FXI; Cat. No. HCXI-0150), baboon FXI was generated as described below. These antigens were coated to black 384 well Maxisorp microtitter plates (Nunc; Cat. No: 460518), diluted to a concentration of 1 μg/ml in 1× Coating Buffer (Candor Bioscience; Cat. No. 121125). Plates were incubated overnight at 4° C. After ovemight incubation, plates were washed 2× with 50 μl/well using Phosphate Buffered Saline (PBS, SigmaAldrich, Cat. No. D8662)+0.05% Tween 20 (SigmaAldrich, Cat. No. P9416). Following this, 50 μl/well of blocking buffer (Smart Block; Candor Bioscience; Cat. No. 113500) was added and the plates incubated for 1 hour at room temperature. Afterwards, plates were washed for 3× using 50 μl/well of a PBS+0.05% Tween 20 buffer. Antibodies of this invention were added at different concentrations in a final volume of 30 μl/well. Plates were incubated for 1 hour at room temperature. Following this incubation step, plates were washed for 3× using 50 μl/well of a PBS+0.05% Tween 20 buffer. For the detection of bound candidate antibodies, the anti-h-Fc-POD antibody (Sigma; Cat. No. A0170) was diluted by the factor of 1:10000 in 10% Blocking Buffer. […]

[2] = biological target: T1, human coagulation factor XI; test: ELISA on coated human FXI, anti-h-Fc-POD detection
Experimental: as §1

[3] = biological target: T1, human coagulation factor XI; test: competitive ELISA on coated FXI, competitor biotinylated 1A6

B1: humanized and germlined anti-FXI antibody TPP-3290 (antibody, human IgG1, kappa, V domains shown)
VH: EVTLRESGPALVKPTQTLTLTCTFSGFSLSTSGMGVSWIRQPPGKALEWLAHIDWDDDKYYSTSLKSRLTISKDTSKNQVVLTMTNMDPVDTATYYCARIRSSVYAHYYGMDYWGQGTTVTVSS
VL: DIVMTQSPDSLAVSLGERATISCKASQSVLYSGDNYLNWYQQKPGQPPKLLIYAASTLESGIPDRFSGSGSGTDFTLTISSLQAEDVAVYYCQQYNGTPWTFGGGTKVEIKR
notes: IgG expressed in HEK293-6E cells; also called TTP3290
binding result [1]: binds

B2: humanized and germlined anti-FXI antibody TPP-3238 (antibody, human IgG1, kappa, V domains shown)
VH: B1 VH with A106Y, H107Y, Y113V
VL: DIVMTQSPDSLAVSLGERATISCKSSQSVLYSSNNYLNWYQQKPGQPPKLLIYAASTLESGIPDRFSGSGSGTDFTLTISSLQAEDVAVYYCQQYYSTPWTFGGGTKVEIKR
notes: IgG expressed in HEK293-6E cells
binding result [2]: binds

B3: humanized and germlined anti-FXI antibody TPP-3583 (antibody, human IgG1, kappa, V domains shown)
VH: B1 VH with S37G, T63P
VL: B1 VL with T98D
notes: also called TTP-3583
binding result [3]: binds
